In paper PMC12093266, “Synergistic action of two radical SAM enzymes in the biosynthesis of thuricin CD, a two-component sactibiotic†” (Chemical Science, 2025):

Molecular target: T1, TrnC (Bacillus thuringiensis, fluorescently labeled with RED-NHS (in the MST experiments where TrnC is the labelled partner))
T1 construct: TrnC, radical SAM (rSAM/SPASM) sactisynthase encoded in the thuricin CD biosynthetic gene cluster of Bacillus thuringiensis; Likely holds three [4Fe-4S] clusters after reconstitution; also called 6× His-tagged TrnC; wild type TrnC; source: E. coli, purified to near homogeneity and reconstituted under anaerobic conditions; also E. coli lysate, coexpressed with non-tagged TrnD from a …
Experiment: MST; TrnC fluorescently labeled with RED-NHS; series of diluted TrnD (or TrnD(ΔRRE), or an equimolar mixture of TrnD with TrnA or TrnB) mixed with it in capillaries; Monolith instrument; aerobic conditions
Conditions: both partners purified

B1: TrnD (enzyme)
chain: MKKYFRLYPYCHLEIGETNSCLYDISSGKMIRVNRENAELLRQCQENVPIESINMDLGILDELIKMNLGTYYANPQFIEPFFETNDTKNRIFGKNNILRQMFILTSTDCNMNCKHCNTDSTVFRKTGCKIWPKSINLNALTQSHWRKILEAFYNLHGEELTFIGGEPFLEFDFIKNIVEIAQEVGISKFSIFTNGSIINDTILNFLMENKIKVYIQIFEVDENKFKAFTNSDIPSIQIIDNIKKLNNHHLDLQLRILITRDNDNNLKKIVNTLQKETNVKDIKIEFLYPKPDNSYYSKKYIPLMYDKKREFSHVNVQKMQFLHQYNPSFFGQITIRRDGKVVPHPMLLTRVIGDLQQDDLFTIINTEEYQEYSTLNKEKISKCSTCAYKYNCMDDRVIENFATGDLYGMEYCNF
modifications: fluorescently labeled (in the MST of Fig. 5D only)
Kd: 2390 ± 460 nM

B2: equimolar mixture of TrnD and TrnB (complex)
chain 1: MKKYFRLYPYCHLEIGETNSCLYDISSGKMIRVNRENAELLRQCQENVPIESINMDLGILDELIKMNLGTYYANPQFIEPFFETNDTKNRIFGKNNILRQMFILTSTDCNMNCKHCNTDSTVFRKTGCKIWPKSINLNALTQSHWRKILEAFYNLHGEELTFIGGEPFLEFDFIKNIVEIAQEVGISKFSIFTNGSIINDTILNFLMENKIKVYIQIFEVDENKFKAFTNSDIPSIQIIDNIKKLNNHHLDLQLRILITRDNDNNLKKIVNTLQKETNVKDIKIEFLYPKPDNSYYSKKYIPLMYDKKREFSHVNVQKMQFLHQYNPSFFGQITIRRDGKVVPHPMLLTRVIGDLQQDDLFTIINTEEYQEYSTLNKEKISKCSTCAYKYNCMDDRVIENFATGDLYGMEYCNF
chain 2: MEVLNKQNVNIIPESEEVGGWVACVGACGTVCLASGGVGTEFAAASYFL
Kd: 620 ± 160 nM
